Laboratory results reported in article PMC5908791.

Key:
[1] = target: human SOCS1 (residues 53-211) in complex with Elongins B and C (human) (UniProt O15524); assay: ITC
[2] = target: human JAK1 kinase domain (human) (UniProt P23458)
Sequence of UniProt P23458 (P23458 869-1153): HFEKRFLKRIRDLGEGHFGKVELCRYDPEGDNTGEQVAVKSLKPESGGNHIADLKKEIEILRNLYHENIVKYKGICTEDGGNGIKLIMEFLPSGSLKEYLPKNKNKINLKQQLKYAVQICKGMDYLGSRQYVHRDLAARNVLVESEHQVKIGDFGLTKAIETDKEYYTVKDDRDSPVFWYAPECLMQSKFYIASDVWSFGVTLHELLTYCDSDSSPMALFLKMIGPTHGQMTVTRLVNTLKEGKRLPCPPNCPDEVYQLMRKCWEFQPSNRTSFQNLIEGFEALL

Substance: IFNαR2 (pY269)
- Kd [1]: 2650 nM

Substance: IL-2Rβ (pY392)
- Kd [1]: 1030 nM

Substance: IL-2Rβ (pY338)
- Kd [1]: 964 nM

Substance: IL-2Rβ (pY510)
- Kd [1]: 209 nM

Substance: human SOCS1 (residues 53-211) in complex with Elongins B and C (from UniProt O15524 53-211; Q15370 1-118; Q15369 17-112)
- IC50 of inhibition of the JAK1 kinase domain phosphorylating a STAT5b-derived peptide (in vitro kinase assay) [2]: 30 nM

Substance: IL-2Rβ (pY355)
- Kd [1]: 614 nM
